The results in this text go back to the supplement of paper PMC9170038.

For series [1], the system named is MS2 coat protein. As to the kind of experiment: apparent KD of MS2 coat protein; higher = weaker reporter binding. The settings on record: Eterna round: R101. As to the method:
(§1)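 RNA-MaP: designed FMN/MS2 RNA switches (84 nt design region) are transcribed on-chip within common flanks and titrated with SNAP-549-labelled MS2 coat protein (about 1-3000 nM) in 100 mM Tris pH 7.5, 80 mM KCl, 4 mM MgCl2, without or with 200 uM FMN. Median apparent KD per design; activation ratio = KD,OFF / KD,ON.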

Series [2] has as its system MS2 coat protein. Description: apparent KD of MS2 coat protein; designed switch direction (-1 OFF switch, 1 ON switch): 1; higher = weaker reporter binding. The settings on record: Eterna round: R98. As to the method:
as §1

The test system of series [3] is MS2 coat protein. Description: apparent KD of MS2 coat protein, switch ON state; designed switch direction (-1 OFF switch, 1 ON switch): 1; higher = weaker reporter binding. The settings on record: FMN input: 0 or 200 uM; Eterna round: R93 (includes R88 designs). The essentials: (§2)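 Illumina sequencing clusters served as templates for on-chip transcription of the designed RNA switches. SNAP-549-labelled MS2 coat protein was then titrated in twofold steps from 0.7 or 1.5 nM to 3 µM, allowing 0.8–1.5 h per step at first and 10–20 min per step later. The buffer held 100 mM Tris-HCl pH 7.5, 80 mM KCl and 4 mM MgCl2, without or with constant ligand. Apparent KD is the median per design of normalised cluster binding-curve fits.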

In series [4] the test system is MS2 coat protein. As to the kind of experiment: apparent KD of MS2 coat protein, switch OFF state (with FMN for OFF switches, without FMN for ON switches); designed switch direction (-1 OFF switch, 1 ON switch): 1; higher = weaker reporter binding. The settings on record: FMN input: 0 or 200 uM; Eterna round: R93 (includes R88 designs). The essentials:
as §2

Take “CACCUAAAUCCUAGAGGAUCACCCUAGGAUAUCACCGUCGAGGUGCCAUAAUGGCACCUCGACGGUGAGAAGGAGGGUAAAUAA [#SharedSequence - SLExNG3: 9] (puzzle (switch architecture): Small Loop Exclusion NG 3)”: the “apparent KD of MS2 coat protein” value in the series with MS2 coat protein [1] (input ligand: FMN 200 uM) was 6.41 nM; with MS2 coat protein [1] (input ligand: none) it was 5.82 nM.
For “UUACGUCCCGUUUACAUGAGGAUCACCCAUGUCGAAAGAACCGAGGAUAUGCUACCUAGUUGGUAGCAGAAGGCGGAAACGUCG [salish99_SSNG3_r02_008]”, the “apparent KD of MS2 coat protein” value in the series with MS2 coat protein [2] (input ligand: FMN 200 uM) amounted to 42.3 nM; with MS2 coat protein [2] (input ligand: none) it was 25.9 nM.
On to “AAUAAACAAUAAAAGACUGGAGCAAACUUUUGAGGAUCACCCAGAAGGCGUCACCUAAUAGGUGACGAGGAUAUGGAGCUCCAG [#SharedSequence IExNG# - 4] (puzzle (switch architecture): Inverted Exclusion NG 3)”, for which the “apparent KD of MS2 coat protein” value was 135 nM with MS2 coat protein [1] (input ligand: FMN 200 uM) and 17.3 nM in the series with MS2 coat protein [1] (input ligand: none).
With “CUGAAGUCUGACCCUCGAAACAUGAGGAUCACCCAUGUAGUCAGAAGGCGAUUGUGAGCAGGAAUCGAGGAUAUGAACUAGUUU [EternaBot1300] (puzzle (switch architecture): Inverted Exclusion NG 3)”, in the series on MS2 coat protein [1] (input ligand: FMN 200 uM), the “apparent KD of MS2 coat protein” value is 9.99 nM.
Take “GCUGCUAUCGCAGGAUAUUACAUGGGAAAGAAUACAUGAGGAUCACCCAUGUAAAAGAUCAUAAAUAAGAAGGGCGAUAGCAGC [Lame State 6 - Jieux - Same State NG 2]”: the entries for the “apparent KD of MS2 coat protein” value in the series with MS2 coat protein [2] (input ligand: FMN 200 uM) and in the series on MS2 coat protein [2] (input ligand: none) were 159 nM and 774 nM, respectively.
For “CUUAGUUUGUAGAAGGGUGACAUGAGGAUCACCCAUGUGCGUAGCCUGAAAGACCAGGGUACGCCACAGGAUAUACAAAGUAAG [Onenisa] (puzzle (switch architecture): Inverted Same State NG 2)”, the “apparent KD of MS2 coat protein” value in the series with MS2 coat protein [1] (input ligand: FMN 200 uM) worked out at 84.9 nM; in the series with MS2 coat protein [1] (input ligand: none), 57.4 nM.
Consider “CAGCAAUUCUUAGGAUAUGCUCAGGAAUACUGAGCAGAAGGAAGAUAUACCUGAGGAUCACCCAGGUUAAACUGAAGCUGAAAA [Same State NG1 - A3C, U17G Submission 7A]”, for which the “apparent KD of MS2 coat protein” value with MS2 coat protein [2] (input ligand: FMN 200 uM) is 28.5 nM; with MS2 coat protein [2] (input ligand: none), 21.2 nM.
The corresponding values for “UCACUCACGUUAGGAUAUGGAUCGGAAAACGAUCCAGAAGGAACCUGCAAACCUGAGGAUCACCCAGGUUCCAAUAACGAGUGA [SameSame 7 - Jieux - Same State NG 1]” are 259 nM and 368 nM.
Take “GCUGUCGCAUGAGGAUAUGGUCAGCUUUGCUGACCAGAAGGCAUGUCGAUAGACAUGAGGAUCACCCAUGUAGUAAAGACAGCA [jl-sng1-2.08 jl mod]”: the “apparent KD of MS2 coat protein” value in the series on MS2 coat protein [2] (input ligand: FMN 200 uM) amounted to 66.6 nM; in the series with MS2 coat protein [2] (input ligand: none), 693 nM.
With “GCAGAAGGUGCAGAGGAUCACCCUGUAAGGAUAUGCAUUAGCAAGGAUAUACAGAGGAUCACCCUGUAGAAGGUGCACUACUCU [pwkr2 ssNG3 DX.2]”, the “apparent KD of MS2 coat protein” value turned out to be 420 nM with MS2 coat protein [2] (input ligand: FMN 200 uM) and 2070 nM with MS2 coat protein [2] (input ligand: none).
Take “CAUGUCCUCACAGGAUAUGCUGGACUUUGUCCAGCAGAAGGGUGAACAUGAGGAUCACCCAUGUUGUGGACAUGUAUAUUUAAU [Denovo 12]”: the “apparent KD of MS2 coat protein” value in the series with MS2 coat protein [2] (input ligand: FMN 200 uM) is 526 nM; in the series with MS2 coat protein [2] (input ligand: none), 394 nM.
As for “AGAACAUGAGGAUCACCCAUGUUAAGGUCGGUAAAUAAGGGUGAGGAUAUGCUUAAAAUAAGGUAGCAGAAGGUGCUUGGUGCA [SameState #76 NG3]”, the “apparent KD of MS2 coat protein” value was determined as 146 nM in the series with MS2 coat protein [2] (input ligand: FMN 200 uM) and 163 nM with MS2 coat protein [2] (input ligand: none).
On the same counts, the results for “GCGGGCCUCACAGGAUAUCUGGUCCCGACAUGAGGAUCACCCAUGUAGGGCAGCUUAAGAAUGCCAGAGAAGGGUGACCAAUAU [Xexemaeron]” are 102 nM and 315 nM.
The corresponding values for “UGUUUGAGCAUAGGAUAUACUGGGAAGGUCCACAUGAGGAUCACCCAUGUAGAGGCUGUUAGACAGUAGAAGGGUGAUCCGAUA [Zariatbege]” are 410 nM and 9.94 nM.
In the case of “CACACAUGGUGAGGAUAUGCAAAGGAUCACCUUGUAGAAGGCAUCAGGGUAGAAGGUGCAAGGAUCACCUGUAAGGAUAUAUCC [pwkr2 ssNG1 DX.24]”, the “apparent KD of MS2 coat protein” value in the series on MS2 coat protein [2] (input ligand: FMN 200 uM) is 395 nM; with MS2 coat protein [2] (input ligand: none) it was 1210 nM.
On the same counts, the results for “CGUGUGGCAUGAGGAUAUGGUCAGCUUUGCUGACCAGAAGGCAUGUCAAUAGACAUGAGGAUCACCCAUGUAGUUAACACACGA [Mat - Same State NG 1 - JL Mod - D23]” are 44 nM and 575 nM.
Consider “ACAUACUUUCGAGGAUAUCGGUGAUAAAUUUGACGAGAAGGCGAUAAAAGAUAUAAUCUUAUAGACAUGAGGAUCACCCAUGUA [JR_SSNG1_Sub015]”, for which the “apparent KD of MS2 coat protein” value in the series on MS2 coat protein [2] (input ligand: FMN 200 uM) came out at 36.8 nM; in the series with MS2 coat protein [2] (input ligand: none), 43.3 nM.
For “AAAACAUGAGGAUCACCCAUGUAAAGAACGGUUAAUAAAAGUGAGGAUAUACAAAAUUUUAUAUAGUAGAAGGCACUGGGUACA [JR_SSNG3_Sub008]”, the “apparent KD of MS2 coat protein” value came out at 23.9 nM in the series with MS2 coat protein [2] (input ligand: FMN 200 uM) and 20.6 nM in the series on MS2 coat protein [2] (input ligand: none).
Regarding “CGGAUGCAAAUAAAACAUGAGGAUCACCCAUGUGAGUCUCAUGAGGAUAUGCAGGUCAAAGACUUGCAGAAGGCAUGGCGUCCG [Mat - Same State NG 3 - JL Mod - D71]”, the “apparent KD of MS2 coat protein” value amounted to 107 nM with MS2 coat protein [2] (input ligand: FMN 200 uM) and 1840 nM in the series on MS2 coat protein [2] (input ligand: none).
For the sequence “CACACAUGAGGAUCACCCAUGUCGUGGGCGGAAAACUGUGCACAGGAUAUGGUGAGGGCAACUCACCAGAAGGGUGGUCAGGAA [Zaenen]”, the “apparent KD of MS2 coat protein” value in the series with MS2 coat protein [2] (input ligand: FMN 200 uM) is 63.1 nM; in the series on MS2 coat protein [2] (input ligand: none), 100 nM.
On the same counts, the results for “CACGUCCACACAGGAUAUGCUGGACUUUGUCCAGCAGAAGGGUGACAACAUGAGGAUCACCCAUGUAGGACGUGUAUAUUUAAG [Mat - Same State NG 1 - Eli mod - D100]” are 188 nM and 2090 nM.
With “GGUCGUCACAUCUACAUGAGGAUCACCCAUGUCGAAAGACAUGAGGAUAUGCAUCCUAAUUGGAUGCAGAAGGCAUGGACGACC [Mat - Same State NG 3 - JL Mod - D22]”, the “apparent KD of MS2 coat protein” value in the series on MS2 coat protein [2] (input ligand: FMN 200 uM) is 65.1 nM; in the series on MS2 coat protein [2] (input ligand: none), 1920 nM.
Turning to “GUCCAACAUGAGGAUCACCCAUGUAAGCGUGAUCAAGGAUAUGGGCGAAAGAAAACGCAACCAGAAGGUGAGCGCC [Aanmati]”, the “apparent KD of MS2 coat protein” value in the series with MS2 coat protein [3] came to 160 nM; in the series on MS2 coat protein [4], 135 nM.
The corresponding values for “AAAAAAAAAACUGAGGAUAUGAAAUAAUAGACAUGAGGAUCACCCAUGUUUUCGGUCGAAAAAAUGCAGAAGGCAGAAAAAAAAAA [JR_SameState2_Sub3]” are 19.4 nM and 23.8 nM.
On the same counts, the results for “AAUAGACAUGAGGAUCACCCAUGUAGAAUUAUGGGAGGAUAUACAAAGACGAGAGUCAGAGUAGAAGGCCUAGGAC [salish99-ss1-151]” are 20.7 nM and 54 nM.
Regarding “AGGAAACAUGAGGAUCACCCAUGUAAAAAUAUGGGAGGAUAUGCGAAAAGAAACAAAGAAGCAGAAGGCCUAAGAA [75%, Ex5 sub 1, 7]”, the “apparent KD of MS2 coat protein” value worked out at 11.9 nM in the series with MS2 coat protein [3] and 155 nM with MS2 coat protein [4].
The corresponding values for “UGAUUGAGAUUGUAGGAUAUUGGAAAAGCCACAUGAGGAUCACCCAUGUCAAAAAAAAAAAAAAACAAGAAGGGCGGUUUUAGUUA [Same State 2]” are 58.4 nM and 64.5 nM.
On the same counts, the results for “UGAAAACAUGAGGAUCACCCAUGUCUAGGAAAUCAAGGAUAUGGGCCGGCAAUAGGCGGGCCAGAAGGUGAGAAAU [Arisati]” are 88.7 nM and 144 nM.
On the same counts, the results for “GGAGUACAUGAGGAUCACCCAUGUUGGAACGAAGUAGGAUAUGUACAAUAUUAAAUAAAAACAGAAGGACUAAUAA [Meow]” are 30.4 nM and 55.1 nM.
For “AGGCAACAUGAGGAUCACCCAUGUCGCAACAAUCAAGGAUAUGGGAGAAAUAAGAAAAUACCAGAAGGUGAAAUAA [Telelabe]”, the “apparent KD of MS2 coat protein” value with MS2 coat protein [3] is 60.7 nM; in the series on MS2 coat protein [4] it was 92 nM.
The corresponding values for “AGGAGACAUGAGGAUCACCCAUGUGAGAAGAGGCGAGGAUAUCGAAAAAAAAAAAAAAAACGAGAAGGCGCGAGAA [SameState1]” are 35.4 nM and 58.2 nM.
Consider “AUAAAUAAAAGAGAGGAUAUCCAAAAGAAAACAUGAGGAUCACCCAUGUGAAAGAAAAUAAAAUGGGAGAAGGCUCACAAUAAUA [Topaz 32]”, for which the “apparent KD of MS2 coat protein” value stood at 23 nM in the series with MS2 coat protein [3] and 26 nM in the series on MS2 coat protein [4].
For the sequence “AAUAUAUUAUUUAAGGAUAUCAUAGGAAACACAUGAGGAUCACCCAUGUGGGAGACUUGGACGGGUGAGAAGGUGGAUAAUAUAU [Samwise Clockwise 37 - Jieux - Same State 2]”, the “apparent KD of MS2 coat protein” value was found to be 19.2 nM with MS2 coat protein [3] and 20.7 nM in the series with MS2 coat protein [4].
On the same counts, the results for “GAAAAACAUGAGGAUCACCCAUGUAGAAACAUGGGAGGAUAUACAAAGACGAAAGUCAAAGUAGAAGGCCUAAAAA [Mat - Same State 1 - Mod - D160]” are 149 nM and 851 nM.
